This note sets out measurements from US20260176319A1 (KALLYOPE, published 2026).

Starred links: 1 amine or outer side, 2 acyl side, 3 side chain; linkers in the order of their positions; H or OH if unused. Non-standard residues stand in square brackets, D forms with d. No end group written: not given here. *: point of attachment. Trp(6-F) = N[C@@H](Cc1c[nH]c2cc(F)ccc12)C(=O)O; Trp(7-F) = N[C@@H](Cc1c[nH]c2c(F)cccc12)C(=O)O; Trp(7-Me) = Cc1cccc2c(C[C@H](N)C(=O)O)c[nH]c12; C20 diacid = O=C(O)CCCCCCCCCCCCCCCCCCC(=O)*; d(γGlu) = O=C(O)[C@@H](CCC(=O)[*:2])N[*:1]; C18 diacid = O=C(O)CCCCCCCCCCCCCCCCC(=O)*; γGlu = O=C(O)[C@H](CCC(=O)[*:2])N[*:1]; 2Nal = N[C@@H](Cc1ccc2ccccc2c1)C(=O)O; Cha = N[C@@H](CC1CCCCC1)C(=O)O; Nle = CCCC[C@H](N)C(=O)O; AEEA = NCCOCCOCC(=O)O; Sar = CNCC(=O)O

Sequences and labels used below:
B1: Peptide 132 (peptide)
peptide: {C20 diacid}-[γGlu][AEEA][AEEA][AEEA][AEEA]GRHWAV[dA]HL[Nle]-NH2
SMILES: CCCC[C@H](NC(=O)[C@H](CC(C)C)NC(=O)[C@H](Cc1c[nH]cn1)NC(=O)[C@@H](C)NC(=O)[C@@H](NC(=O)[C@H](C)NC(=O)[C@H](Cc1c[nH]c2ccccc12)NC(=O)[C@H](Cc1c[nH]cn1)NC(=O)[C@H](CCCNC(=N)N)NC(=O)CNC(=O)COCCOCCNC(=O)COCCOCCNC(=O)COCCOCCNC(=O)COCCOCCNC(=O)CC[C@H](NC(=O)CCCCCCCCCCCCCCCCCCC(=O)O)C(=O)O)C(C)C)C(N)=O
B2: Peptide 9 (peptide)
peptide: {C18 diacid}-[d(γGlu)][AEEA][AEEA]GNHWAV[dA]HL[Nle]-NH2
SMILES: CCCC[C@H](NC(=O)[C@H](CC(C)C)NC(=O)[C@H](Cc1c[nH]cn1)NC(=O)[C@@H](C)NC(=O)[C@@H](NC(=O)[C@H](C)NC(=O)[C@H](Cc1c[nH]c2ccccc12)NC(=O)[C@H](Cc1c[nH]cn1)NC(=O)[C@H](CC(N)=O)NC(=O)CNC(=O)COCCOCCNC(=O)COCCOCCNC(=O)CC[C@@H](NC(=O)CCCCCCCCCCCCCCCCC(=O)O)C(=O)O)C(C)C)C(N)=O
B3: Peptide 123 (peptide)
peptide: {C20 diacid}-[γGlu][AEEA][AEEA]GNH[Trp(7-Me)]AV[dA]HL[Nle][Sar]-NH2
SMILES: CCCC[C@H](NC(=O)[C@H](CC(C)C)NC(=O)[C@H](Cc1c[nH]cn1)NC(=O)[C@@H](C)NC(=O)[C@@H](NC(=O)[C@H](C)NC(=O)[C@H](Cc1c[nH]c2c(C)cccc12)NC(=O)[C@H](Cc1c[nH]cn1)NC(=O)[C@H](CC(N)=O)NC(=O)CNC(=O)COCCOCCNC(=O)COCCOCCNC(=O)CC[C@H](NC(=O)CCCCCCCCCCCCCCCCCCC(=O)O)C(=O)O)C(C)C)C(=O)N(C)CC(N)=O
B4: Peptide 125 (peptide)
peptide: {C20 diacid}-[γGlu][AEEA][AEEA]GNH[Trp(7-Me)][dA]V[dA]HL[Nle][Sar]-NH2
SMILES: CCCC[C@H](NC(=O)[C@H](CC(C)C)NC(=O)[C@H](Cc1c[nH]cn1)NC(=O)[C@@H](C)NC(=O)[C@@H](NC(=O)[C@@H](C)NC(=O)[C@H](Cc1c[nH]c2c(C)cccc12)NC(=O)[C@H](Cc1c[nH]cn1)NC(=O)[C@H](CC(N)=O)NC(=O)CNC(=O)COCCOCCNC(=O)COCCOCCNC(=O)CC[C@H](NC(=O)CCCCCCCCCCCCCCCCCCC(=O)O)C(=O)O)C(C)C)C(=O)N(C)CC(N)=O
B5: Peptide 124 (peptide)
peptide: {C18 diacid}-[γGlu][AEEA][AEEA]GAH[2Nal]AV[dA]HL[Nle][Sar]-NH2
SMILES: CCCC[C@H](NC(=O)[C@H](CC(C)C)NC(=O)[C@H](Cc1c[nH]cn1)NC(=O)[C@@H](C)NC(=O)[C@@H](NC(=O)[C@H](C)NC(=O)[C@H](Cc1ccc2ccccc2c1)NC(=O)[C@H](Cc1c[nH]cn1)NC(=O)[C@H](C)NC(=O)CNC(=O)COCCOCCNC(=O)COCCOCCNC(=O)CC[C@H](NC(=O)CCCCCCCCCCCCCCCCC(=O)O)C(=O)O)C(C)C)C(=O)N(C)CC(N)=O
B6: Peptide 131 (peptide)
peptide: {C20 diacid}-[γGlu][AEEA][AEEA]GNHWAV[dA]HL[Nle][Sar]-NH2
SMILES: CCCC[C@H](NC(=O)[C@H](CC(C)C)NC(=O)[C@H](Cc1c[nH]cn1)NC(=O)[C@@H](C)NC(=O)[C@@H](NC(=O)[C@H](C)NC(=O)[C@H](Cc1c[nH]c2ccccc12)NC(=O)[C@H](Cc1c[nH]cn1)NC(=O)[C@H](CC(N)=O)NC(=O)CNC(=O)COCCOCCNC(=O)COCCOCCNC(=O)CC[C@H](NC(=O)CCCCCCCCCCCCCCCCCCC(=O)O)C(=O)O)C(C)C)C(=O)N(C)CC(N)=O
B7: Peptide 126 (peptide)
peptide: {C18 diacid}-[γGlu][AEEA][AEEA]GAH[2Nal]AV[dA]HL[Nle]-NH2
SMILES: CCCC[C@H](NC(=O)[C@H](CC(C)C)NC(=O)[C@H](Cc1c[nH]cn1)NC(=O)[C@@H](C)NC(=O)[C@@H](NC(=O)[C@H](C)NC(=O)[C@H](Cc1ccc2ccccc2c1)NC(=O)[C@H](Cc1c[nH]cn1)NC(=O)[C@H](C)NC(=O)CNC(=O)COCCOCCNC(=O)COCCOCCNC(=O)CC[C@H](NC(=O)CCCCCCCCCCCCCCCCC(=O)O)C(=O)O)C(C)C)C(N)=O
B8: Peptide 121 (peptide)
peptide: {C18 diacid}-[γGlu][AEEA][AEEA][AEEA][AEEA]GAH[Trp(7-F)]AV[dA]HL[Nle][Sar]-NH2
SMILES: CCCC[C@H](NC(=O)[C@H](CC(C)C)NC(=O)[C@H](Cc1c[nH]cn1)NC(=O)[C@@H](C)NC(=O)[C@@H](NC(=O)[C@H](C)NC(=O)[C@H](Cc1c[nH]c2c(F)cccc12)NC(=O)[C@H](Cc1c[nH]cn1)NC(=O)[C@H](C)NC(=O)CNC(=O)COCCOCCNC(=O)COCCOCCNC(=O)COCCOCCNC(=O)COCCOCCNC(=O)CC[C@H](NC(=O)CCCCCCCCCCCCCCCCC(=O)O)C(=O)O)C(C)C)C(=O)N(C)CC(N)=O
B9: Peptide 120 (peptide)
peptide: {C18 diacid}-[γGlu][AEEA][AEEA]GAHWAV[dA]HL[Cha]-NH2
SMILES: CC(C)C[C@H](NC(=O)[C@H](Cc1c[nH]cn1)NC(=O)[C@@H](C)NC(=O)[C@@H](NC(=O)[C@H](C)NC(=O)[C@H](Cc1c[nH]c2ccccc12)NC(=O)[C@H](Cc1c[nH]cn1)NC(=O)[C@H](C)NC(=O)CNC(=O)COCCOCCNC(=O)COCCOCCNC(=O)CC[C@H](NC(=O)CCCCCCCCCCCCCCCCC(=O)O)C(=O)O)C(C)C)C(=O)N[C@@H](CC1CCCCC1)C(N)=O
B10: Peptide 130 (peptide)
peptide: {C18 diacid}-[γGlu][AEEA][AEEA]GNHRAV[dA]HL[Nle][Sar]-NH2
SMILES: CCCC[C@H](NC(=O)[C@H](CC(C)C)NC(=O)[C@H](Cc1c[nH]cn1)NC(=O)[C@@H](C)NC(=O)[C@@H](NC(=O)[C@H](C)NC(=O)[C@H](CCCNC(=N)N)NC(=O)[C@H](Cc1c[nH]cn1)NC(=O)[C@H](CC(N)=O)NC(=O)CNC(=O)COCCOCCNC(=O)COCCOCCNC(=O)CC[C@H](NC(=O)CCCCCCCCCCCCCCCCC(=O)O)C(=O)O)C(C)C)C(=O)N(C)CC(N)=O
B11: Peptide 129 (peptide)
peptide: {C18 diacid}-[γGlu][AEEA][AEEA]GRH[Trp(7-Me)]AV[dA]HL[Nle][Sar]-NH2
SMILES: CCCC[C@H](NC(=O)[C@H](CC(C)C)NC(=O)[C@H](Cc1c[nH]cn1)NC(=O)[C@@H](C)NC(=O)[C@@H](NC(=O)[C@H](C)NC(=O)[C@H](Cc1c[nH]c2c(C)cccc12)NC(=O)[C@H](Cc1c[nH]cn1)NC(=O)[C@H](CCCNC(=N)N)NC(=O)CNC(=O)COCCOCCNC(=O)COCCOCCNC(=O)CC[C@H](NC(=O)CCCCCCCCCCCCCCCCC(=O)O)C(=O)O)C(C)C)C(=O)N(C)CC(N)=O
B12: Peptide 122 (peptide)
peptide: {C20 diacid}-[γGlu][AEEA][AEEA][AEEA][AEEA]GRH[Trp(7-Me)]AV[dA]HL[Nle]-NH2
SMILES: CCCC[C@H](NC(=O)[C@H](CC(C)C)NC(=O)[C@H](Cc1c[nH]cn1)NC(=O)[C@@H](C)NC(=O)[C@@H](NC(=O)[C@H](C)NC(=O)[C@H](Cc1c[nH]c2c(C)cccc12)NC(=O)[C@H](Cc1c[nH]cn1)NC(=O)[C@H](CCCNC(=N)N)NC(=O)CNC(=O)COCCOCCNC(=O)COCCOCCNC(=O)COCCOCCNC(=O)COCCOCCNC(=O)CC[C@H](NC(=O)CCCCCCCCCCCCCCCCCCC(=O)O)C(=O)O)C(C)C)C(N)=O
B13: Peptide 128 (peptide)
peptide: {C18 diacid}-[γGlu][AEEA][AEEA]GAHW[dA]V[dA]HL[Nle][Sar]-NH2
SMILES: CCCC[C@H](NC(=O)[C@H](CC(C)C)NC(=O)[C@H](Cc1c[nH]cn1)NC(=O)[C@@H](C)NC(=O)[C@@H](NC(=O)[C@@H](C)NC(=O)[C@H](Cc1c[nH]c2ccccc12)NC(=O)[C@H](Cc1c[nH]cn1)NC(=O)[C@H](C)NC(=O)CNC(=O)COCCOCCNC(=O)COCCOCCNC(=O)CC[C@H](NC(=O)CCCCCCCCCCCCCCCCC(=O)O)C(=O)O)C(C)C)C(=O)N(C)CC(N)=O
B14: Peptide 119 (peptide)
peptide: {C18 diacid}-[γGlu][AEEA][AEEA]GNHWAV[dA]HL[Cha]-NH2
SMILES: CC(C)C[C@H](NC(=O)[C@H](Cc1c[nH]cn1)NC(=O)[C@@H](C)NC(=O)[C@@H](NC(=O)[C@H](C)NC(=O)[C@H](Cc1c[nH]c2ccccc12)NC(=O)[C@H](Cc1c[nH]cn1)NC(=O)[C@H](CC(N)=O)NC(=O)CNC(=O)COCCOCCNC(=O)COCCOCCNC(=O)CC[C@H](NC(=O)CCCCCCCCCCCCCCCCC(=O)O)C(=O)O)C(C)C)C(=O)N[C@@H](CC1CCCCC1)C(N)=O
B15: Peptide 133 (peptide)
peptide: {C18 diacid}-[γGlu][AEEA][AEEA][AEEA][AEEA]GNH[Trp(6-F)]AV[dA]HL[Nle][Sar]-NH2
SMILES: CCCC[C@H](NC(=O)[C@H](CC(C)C)NC(=O)[C@H](Cc1c[nH]cn1)NC(=O)[C@@H](C)NC(=O)[C@@H](NC(=O)[C@H](C)NC(=O)[C@H](Cc1c[nH]c2cc(F)ccc12)NC(=O)[C@H](Cc1c[nH]cn1)NC(=O)[C@H](CC(N)=O)NC(=O)CNC(=O)COCCOCCNC(=O)COCCOCCNC(=O)COCCOCCNC(=O)COCCOCCNC(=O)CC[C@H](NC(=O)CCCCCCCCCCCCCCCCC(=O)O)C(=O)O)C(C)C)C(=O)N(C)CC(N)=O

For this assay, the target named is human GRP receptor (human, UniProt P30550 1-384). Nature of the assay: cell-based or functional assay.
Sequence of human GRP receptor (P30550 whole entry): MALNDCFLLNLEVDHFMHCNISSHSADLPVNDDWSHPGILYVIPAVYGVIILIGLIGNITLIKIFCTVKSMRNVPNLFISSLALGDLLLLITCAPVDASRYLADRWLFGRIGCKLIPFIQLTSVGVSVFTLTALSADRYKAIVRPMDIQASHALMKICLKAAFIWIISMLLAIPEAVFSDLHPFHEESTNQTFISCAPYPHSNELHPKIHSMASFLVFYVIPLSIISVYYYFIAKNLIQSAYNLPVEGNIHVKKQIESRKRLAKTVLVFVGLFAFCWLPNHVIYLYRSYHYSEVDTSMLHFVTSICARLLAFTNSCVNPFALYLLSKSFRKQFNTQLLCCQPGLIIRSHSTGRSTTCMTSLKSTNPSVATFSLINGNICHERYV
Consider B1, for which the “hIP1 GRPR EC50” value is 4.18 nM.
As for B2, the figure is 9.4 nM.
As for B3, the figure is 60.1 nM; as for B4, over 10000 nM; as for B5, 2380 nM.
As for B6, the figure is 54.2 nM; as for B7, 92.5 nM.
Regarding B8, the “hIP1 GRPR EC50” value was 356 nM.
Next, B9: 443 nM; GNHWAVGHLM-NH2 [GRP-10 (human GRP18-27)]: 15 nM.
Next, B10: over 10000 nM.
As for GNHWAVXHLX (Palmitoyl-Gly-Asn-His-Trp-Ala-Val-D-Ala-His-Leu-Nle-NH2) [Peptide 10], the figure is 3.8 nM; as for B11, 334 nM.
As for B12, the “hIP1 GRPR EC50” value turned out to be 3.88 nM.
As for B13, the figure is 1060 nM; as for B14, 660 nM.
As for B15, the figure is 600 nM.
